Test results as given in US20140087995A1 (published 2014).
Numbered stars: 1 amine (or outer) side, 2 acyl side, 3 side chain; on linkers, the order of the positions; unused ones are H or OH. Bridge positions count the residues as written; N and C are the ends. Side chains are listed from the residue outwards. Ends that are not written are not given here. * marks the point of attachment. C20 diacid = O=C(O)CCCCCCCCCCCCCCCCCCC(=O)*; γGlu = O=C(O)[C@H](CCC(=O)[*:2])N[*:1]; AEEA = NCCOCCOCC(=O)O

T1: human amylin 3(a) receptor (human calcitonin receptor co-expressed with RAMP-3) (human, UniProt P30988 25-474; O60896 24-148, limits assumed)
T1 sequence (looked up) 1: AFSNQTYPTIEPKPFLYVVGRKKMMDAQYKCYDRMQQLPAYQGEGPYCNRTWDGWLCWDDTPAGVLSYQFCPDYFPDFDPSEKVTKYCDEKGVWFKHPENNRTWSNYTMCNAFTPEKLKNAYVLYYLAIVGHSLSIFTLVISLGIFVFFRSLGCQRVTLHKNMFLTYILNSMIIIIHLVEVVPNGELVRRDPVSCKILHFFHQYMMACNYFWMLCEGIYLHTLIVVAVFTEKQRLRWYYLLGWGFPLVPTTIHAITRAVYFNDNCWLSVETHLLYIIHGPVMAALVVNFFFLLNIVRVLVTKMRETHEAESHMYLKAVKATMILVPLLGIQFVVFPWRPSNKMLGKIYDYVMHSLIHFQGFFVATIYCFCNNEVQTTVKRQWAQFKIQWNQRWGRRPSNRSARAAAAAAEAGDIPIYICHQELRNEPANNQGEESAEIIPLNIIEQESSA
T1 sequence (looked up) 2: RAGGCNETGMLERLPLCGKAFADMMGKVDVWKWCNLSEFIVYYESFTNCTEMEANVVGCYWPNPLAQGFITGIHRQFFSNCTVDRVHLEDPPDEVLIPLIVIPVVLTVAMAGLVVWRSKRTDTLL

B1: N^ε1-[2-[2-[2-[[(4S)-4-carboxy-4-(19-carboxynonadecanoylamino)butanoyl]amino]ethoxy]ethoxy]acetyl]-[Arg17,Pro21,Pro27,His34]-h-amylin (peptide)
peptide: K([AEEA-γGlu-C20 diacid])CNTATCATQRLANFLRHSSPNFGAIPSSTNVGHNTY-NH2
modifications: disulfide 2-7; N-terminus assumed
SMILES: CC[C@H](C)[C@H](NC(=O)[C@H](C)NC(=O)CNC(=O)[C@H](Cc1ccccc1)NC(=O)[C@H](CC(N)=O)NC(=O)[C@@H]1CCCN1C(=O)[C@H](CO)NC(=O)[C@H](CO)NC(=O)[C@H](Cc1c[nH]cn1)NC(=O)[C@H](CCCNC(=N)N)NC(=O)[C@H](CC(C)C)NC(=O)[C@H](Cc1ccccc1)NC(=O)[C@H](CC(N)=O)NC(=O)[C@H](C)NC(=O)[C@H](CC(C)C)NC(=O)[C@H](CCCNC(=N)N)NC(=O)[C@H](CCC(N)=O)NC(=O)[C@@H](NC(=O)[C@H](C)NC(=O)[C@@H]1CSSC[C@H](NC(=O)[C@@H](N)CCCCNC(=O)COCCOCCNC(=O)CC[C@H](NC(=O)CCCCCCCCCCCCCCCCCCC(=O)O)C(=O)O)C(=O)N[C@@H](CC(N)=O)C(=O)N[C@@H]([C@@H](C)O)C(=O)N[C@@H](C)C(=O)N[C@@H]([C@@H](C)O)C(=O)N1)[C@@H](C)O)C(=O)N1CCC[C@H]1C(=O)N[C@@H](CO)C(=O)N[C@@H](CO)C(=O)N[C@H](C(=O)N[C@@H](CC(N)=O)C(=O)N[C@H](C(=O)NCC(=O)N[C@@H](Cc1c[nH]cn1)C(=O)N[C@@H](CC(N)=O)C(=O)N[C@H](C(=O)N[C@@H](Cc1ccc(O)cc1)C(N)=O)[C@@H](C)O)C(C)C)[C@@H](C)O
notes: also called compound 76
B2: N^ε1-[2-[2-[2-[[(4S)-4-carboxy-4-(19-carboxynonadecanoylamino)butanoyl]amino]ethoxy]ethoxy]acetyl]-[Arg17,Pro21,Pro27,Pro28,Pro34]-h-amylin (peptide)
peptide: K([AEEA-γGlu-C20 diacid])CNTATCATQRLANFLRHSSPNFGAIPPSTNVGPNTY-NH2
modifications: disulfide 2-7; N-terminus assumed
SMILES: CC[C@H](C)[C@H](NC(=O)[C@H](C)NC(=O)CNC(=O)[C@H](Cc1ccccc1)NC(=O)[C@H](CC(N)=O)NC(=O)[C@@H]1CCCN1C(=O)[C@H](CO)NC(=O)[C@H](CO)NC(=O)[C@H](Cc1c[nH]cn1)NC(=O)[C@H](CCCNC(=N)N)NC(=O)[C@H](CC(C)C)NC(=O)[C@H](Cc1ccccc1)NC(=O)[C@H](CC(N)=O)NC(=O)[C@H](C)NC(=O)[C@H](CC(C)C)NC(=O)[C@H](CCCNC(=N)N)NC(=O)[C@H](CCC(N)=O)NC(=O)[C@@H](NC(=O)[C@H](C)NC(=O)[C@@H]1CSSC[C@H](NC(=O)[C@@H](N)CCCCNC(=O)COCCOCCNC(=O)CC[C@H](NC(=O)CCCCCCCCCCCCCCCCCCC(=O)O)C(=O)O)C(=O)N[C@@H](CC(N)=O)C(=O)N[C@@H]([C@@H](C)O)C(=O)N[C@@H](C)C(=O)N[C@@H]([C@@H](C)O)C(=O)N1)[C@@H](C)O)C(=O)N1CCC[C@H]1C(=O)N1CCC[C@H]1C(=O)N[C@@H](CO)C(=O)N[C@H](C(=O)N[C@@H](CC(N)=O)C(=O)N[C@H](C(=O)NCC(=O)N1CCC[C@H]1C(=O)N[C@@H](CC(N)=O)C(=O)N[C@H](C(=O)N[C@@H](Cc1ccc(O)cc1)C(N)=O)[C@@H](C)O)C(C)C)[C@@H](C)O
notes: also called compound 55

Target: T1, human amylin 3(a) receptor (human …)
Assay: cell-based or functional assay

Ratio hCT/hAmylin funct. (hCTR EC50 over hAmylin-R EC50) | hAmylin-R funct. EC50 (pM) | Binder
24.8 | 297 pM | B1
10.8 | 68 pM | B2
